Results published in US20180319880A1 (Eli Lilly, published 2018).
Substitutions are numbered along the chain they refer to.

Columns and labels:
[1] = target: T1, human IL-12 (human, UniProt P29459 23-219; P29460 23-328); assay: SPR (BIAcore 2000), antibody captured on Protein A
T1 sequence (looked up) 1: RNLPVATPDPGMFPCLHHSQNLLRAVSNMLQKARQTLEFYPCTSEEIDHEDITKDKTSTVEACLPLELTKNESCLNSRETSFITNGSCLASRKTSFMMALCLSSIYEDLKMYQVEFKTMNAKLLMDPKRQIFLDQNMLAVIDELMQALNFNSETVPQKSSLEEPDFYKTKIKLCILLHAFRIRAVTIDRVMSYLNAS
T1 sequence (looked up) 2: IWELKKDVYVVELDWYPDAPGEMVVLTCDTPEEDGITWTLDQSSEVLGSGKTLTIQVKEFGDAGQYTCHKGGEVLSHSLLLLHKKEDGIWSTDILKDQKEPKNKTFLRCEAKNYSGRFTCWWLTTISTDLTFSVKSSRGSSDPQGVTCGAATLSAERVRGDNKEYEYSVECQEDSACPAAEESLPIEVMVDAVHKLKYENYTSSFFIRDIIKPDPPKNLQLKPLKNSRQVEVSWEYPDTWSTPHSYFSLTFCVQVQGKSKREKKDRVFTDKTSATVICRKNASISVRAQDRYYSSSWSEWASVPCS

[2] = target: T2, human IL-27 (human, UniProt Q8NEV9 29-243; Q14213 21-229); assay: SPR (BIAcore 2000), antibody captured on Protein A
T2 sequence (looked up) 1: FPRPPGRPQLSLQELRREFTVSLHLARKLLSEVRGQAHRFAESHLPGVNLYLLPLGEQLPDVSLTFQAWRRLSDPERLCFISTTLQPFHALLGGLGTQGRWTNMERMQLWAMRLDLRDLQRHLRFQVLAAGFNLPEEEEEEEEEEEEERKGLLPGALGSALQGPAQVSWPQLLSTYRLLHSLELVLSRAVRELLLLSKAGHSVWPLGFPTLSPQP
T2 sequence (looked up) 2: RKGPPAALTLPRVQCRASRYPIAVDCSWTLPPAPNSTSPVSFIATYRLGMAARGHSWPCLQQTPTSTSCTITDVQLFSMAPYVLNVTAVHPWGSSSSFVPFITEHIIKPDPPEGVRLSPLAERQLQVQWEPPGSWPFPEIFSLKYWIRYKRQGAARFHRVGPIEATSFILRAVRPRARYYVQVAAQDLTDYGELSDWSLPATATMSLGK

[3] = target: T3, human IL-35 (human, UniProt P29459 23-219; Q14213 21-229); assay: SPR (BIAcore 2000), antibody captured on Protein A
T3 sequence (looked up) 1: T1 sequence (looked up) 1
T3 sequence (looked up) 2: T2 sequence (looked up) 2

[4] = target: T4, rabbit IL-23 (rabbit, UniProt G1SSM0 20-191); assay: SPR (Biacore T200), antibody captured on Protein A, IL-23 as analyte, 37 C, n=1
T4 construct: not shown: The rabbit p40 subunit (IL-12B) of the heterodimer; Any tag or linker of the reagent is also unstated
T4 sequence (p19): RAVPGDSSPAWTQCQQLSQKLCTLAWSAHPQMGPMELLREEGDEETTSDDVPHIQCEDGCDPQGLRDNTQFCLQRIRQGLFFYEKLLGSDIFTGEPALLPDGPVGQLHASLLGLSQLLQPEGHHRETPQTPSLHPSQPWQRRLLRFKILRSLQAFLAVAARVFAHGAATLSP
Method: Affinity and kinetics of Bispecific Antibody 1 to human, cynomolgus monkey, mouse, rat, and rabbit IL-23 are measured using a Biacore T200 instrument (BIAcore® AB, Upsala, Sweden). Briefly, a protein-A coupled CM5 chip is generated using standard amine-coupling protocols. Bispecific Antibody 1 is diluted to 1 μg/mL in running buffer, and approximately 100 RU is captured to the chip surface. A concentration series of each ligand is injected over all flow cells at 100 μL/minute for 180 seconds followed by a 900 second dissociation phase followed by chip regeneration. Data is analyzed in Biacore T200 Evaluation Software Version 1.0 by flow-cell 1 reference subtraction along with 0 nM blank subtraction. Human, cynomolgus monkey, and rabbit IL-23 data are fit globally using a “1:1 (Langmuir) Binding” binding model to determine the on-rate (kₒₙ) and off-rate (koff) for each ligand. The affinity (KD) is calculated from the binding kinetics according to the relationship KD=koff/kₒₙ. Mouse IL-23 binding data is fit using a “Steady State Affinity” binding model to determine affinity (KD). Stoichiometry of binding is calculated according to the relationship: Stoichiometry of binding is calculated according to the relationship: Stoichiometry=[RUₘₐₓ/RU_{Bispecific Antibody 1}]/[MWantigen/MW_{Bispecific Antibody 1}] where MWantigen is the molecular weight of human IL-23 and MW_{Bispecific Antibody 1} is 150 kDa.

[5] = target: T5, human CGRP (human/cynomolgus monkey CGRP) (human, not fully specified); assay: SPR (Biacore T100 or T200), antibody captured on Protein A, CGRP as analyte, 37 C, n=3
T5 construct: also called human Calcitonin Gene Related Peptide; human CGRP peptide (Bachem H-1470)
T5 peptide: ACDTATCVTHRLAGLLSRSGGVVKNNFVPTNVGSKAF
Method: (§1) Affinity and kinetics of Bispecific Antibody 1 to human/cynomolgus monkey, mouse/rat, and rabbit CGRP are measured using a Biacore T100 or T200 instrument (BIAcore® AB, Upsala, Sweden). Briefly, a protein-A coupled CM5 chip is generated using standard amine-coupling protocols. […] A concentration series of each ligand is injected over all flow cells at 70-100 μL/minute for 180 seconds followed by a 1500-1800 second dissociation phase followed by chip regeneration.
(§2) Data is analyzed by flow-cell 1 reference subtraction along with 0 nM blank subtraction. The on-rate (kₒₙ) and off-rate (koff) for each ligand are fit globally using a “1:1 (Langmuir) Binding” binding model. The affinity (KD) is calculated from the binding kinetics according to the relationship KD=koff/kₒₙ. Stoichiometry of binding is calculated according to the relationship: Stoichiometry=[RUₘₐₓ/RU_{Bispecific Antibody 1}]/[MWantigen/MW_{Bispecific Antibody 1}] where MWantigen is the molecular weight of human CGRP and MW_{Bispecific Antibody 1} is 150 kDa.

[6] = target: T6, mouse IL-23 (mouse, UniProt Q9EQ14 22-196; P43432 23-335); assay: SPR (Biacore T200), antibody captured on Protein A, steady-state affinity model, 37 C, n=2
T6 sequence (looked up) 1: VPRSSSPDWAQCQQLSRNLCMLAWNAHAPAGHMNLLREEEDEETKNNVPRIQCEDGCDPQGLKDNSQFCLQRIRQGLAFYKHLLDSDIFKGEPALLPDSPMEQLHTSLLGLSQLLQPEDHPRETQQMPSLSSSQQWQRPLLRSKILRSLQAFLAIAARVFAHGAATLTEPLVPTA
T6 sequence (looked up) 2: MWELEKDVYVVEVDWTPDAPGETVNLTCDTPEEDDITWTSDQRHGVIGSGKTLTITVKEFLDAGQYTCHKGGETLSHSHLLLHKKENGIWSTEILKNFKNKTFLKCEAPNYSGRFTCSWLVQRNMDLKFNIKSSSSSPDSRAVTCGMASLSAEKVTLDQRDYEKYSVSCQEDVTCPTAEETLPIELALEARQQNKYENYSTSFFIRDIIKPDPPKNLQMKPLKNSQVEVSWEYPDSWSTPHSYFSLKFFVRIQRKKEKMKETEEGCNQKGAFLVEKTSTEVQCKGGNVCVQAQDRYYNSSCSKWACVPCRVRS
Method: Affinity and kinetics of Bispecific Antibody 1 to human, cynomolgus monkey, mouse, rat, and rabbit IL-23 are measured using a Biacore T200 instrument (BIAcore® AB, Upsala, Sweden). Briefly, a protein-A coupled CM5 chip is generated using standard amine-coupling protocols. Bispecific Antibody 1 is diluted to 1 μg/mL in running buffer, and approximately 100 RU is captured to the chip surface. A concentration series of each ligand is injected over all flow cells at 100 μL/minute for 180 seconds followed by a 900 second dissociation phase followed by chip regeneration. Data is analyzed in Biacore T200 Evaluation Software Version 1.0 by flow-cell 1 reference subtraction along with 0 nM blank subtraction. Human, cynomolgus monkey, and rabbit IL-23 data are fit globally using a “1:1 (Langmuir) Binding” binding model to determine the on-rate (kₒₙ) and off-rate (koff) for each ligand. The affinity (KD) is calculated from the binding kinetics according to the relationship KD=koff/kₒₙ. […] Stoichiometry of binding is calculated according to the relationship: Stoichiometry of binding is calculated according to the relationship: Stoichiometry=[RUₘₐₓ/RU_{Bispecific Antibody 1}]/[MWantigen/MW_{Bispecific Antibody 1}] where MWantigen is the molecular weight of human IL-23 and MW_{Bispecific Antibody 1} is 150 kDa. […]

[7] = target: rabbit CGRP (rabbit); assay: SPR (Biacore T100 or T200), antibody captured on Protein A, CGRP as analyte, 37 C, n=1
Method: as §1, §2

[8] = target: T7, mouse/rat CGRP (mouse/rat, UniProt P01256 83-119 (rat entry)); assay: as above
T7 construct: also used as the target of the rat dermal blood flow assay (endogenous rat CGRP)
T7 peptide (looked up): T5 peptide with A1S, D3N, N25D, K35E
Method: as §1, §2

[9] = target: T5, human CGRP (human/cynomolgus monkey …); assay: SPR (BIAcore 3000), antibody captured on Protein A, after CGRP injections, 25 C

B1: Bispecific Antibody 1 (bispecific antibody, human IgG1, kappa, lambda, L234A L235A)
heavy 1: QVQLVQSGAEVKKPGSSVKVSCKASGYTFGNYWMQWVRYAPGQGLEWMGAIYEGTGKTVYIQKFADRVTITADKSTSTAYMELSSLRSEDTAVYYCARLSDYVSGFGYWGRGTTVTVSSASTKGPSVFPLAPCSKSTSGGTAALGCLVKDYFPEPVTVSWNSGALTSGVHTFPAVLQSSGLYSLSSVVTVPSSSLGTQTYICNVNHKPSNTKVDKKVEPDSGDKTHTCPPCPAPEAAGGPSVFLFPPKPKDTLMISRTPEVTCVVVDVSHEDPEVKFNWYVDGVEVHNAKTKPREEQYNSTYRVVSVLTVLHQDWLNGKEYKCKVSNKALPAPIEKTISKAKGQPREPQVYTLPPSRGDMTKNQVQLTCLVKGFYPSDIAVEWESNGQPENNYKTTPPVLDSDGSFFLASKLTVDKSRWQQGNVFSCSVMHEALHNHYTQKSLSLSPG
light 1: DIQMTQSPSSLSASVGDRVTITCRASKDISKYLNWYQRKPGDAPKLLIYYTSGYHSGVPSRFSGSGSGTDFTLTISSLQPEDFATYYCQQGDALPPTFGGGTKVEIKRTVAAPSVFIFPPSKEQLKSGTASVVCLLNNFYPREAKVQWKVDNALQSGNSQESVTEQDSKDSTYSLSSTLTLSKADYEKHKVYACEVTHQGLSSPVTKSFNRGEC
heavy 2: QVQLVQSGAEVKKPGSSVKVSCKASGYPFTRYVMHWVRKAPGQGLEWMGYINPYNDGVNYNEEFKGRVTITADESTSTAYMELSSLRSEDTAVYYCARNWDTGLWGQGTTVTVSSASTKGPSVFPLAPSSKSTSGGTAALGCLVKDYFPEPVTVSWNSGALTSGVATGPAVLQSSGLYSLSSVVTVPSSSLGTQTYICNVNHKPSNTKVDKKVEPKSCDKTHTCPPCPAPEAAGGPSVFLFPPKPKDTLMISRTPEVTCVVVDVSHEDPEVKFNWYVDGVEVHNAKTKPREEQYNSTYRVVSVLTVLHQDWLNGKEYKCKVSNKALPAPIEKTISKAKGQPREPQVSTLPPSREEMTKNQVSLMCLVYGFYPSDIAVEWESNGQPENNYKTTPPVLDSDGSFFLYSVLTVDKSRWQQGNVFSCSVMHEALHNHYTQKSLSLSPG
light 2: RIQMTQSPSSLSASVGDRVTITCKASDHIGKFLTWYQDKPGKAPKLLIYGATSKLTGVPSRFSGSGSGTDFTLTISSLQPEDFATYYCQQYWSTPFTFGGGTKVEIKGQPKAAPSVTLFPPSSEELQANKATLVCYISDFYPGAVTVAWKADSSPVKAGVETTTPSKQSNNKYAAWSYLSLTPEQWKSHRSYSCQVTHEGSTVEKTVAPTEC
notes: Heterodimeric IgG1 with one arm for CGRP and one arm for the p19 subunit of IL-23; also called exemplified bispecific antibody; anti-CGRP/anti-IL-23 IgG bispecific antibody
Question: Does B1 bind [1]?
Answer: no binding (tested: 400 nM)

Question: Does B1 bind [2]?
Answer: no binding (tested: 400 nM)

Question: Does B1 bind [3]?
Answer: no binding (tested: 400 nM)

Question: What about the Kd [4] of the same binder?
Answer: 1020 nM

Question: What about the Stoichiometry [4] of the same binder?
Answer: 1

Question: And the koff [4]?
Answer: 0.018 s⁻¹

Question: What about the kon [4] of the same binder?
Answer: 17000 M⁻¹ s⁻¹

Question: And the Kd [5]?
Answer: 0.0071 nM

Question: And the Stoichiometry [5]?
Answer: 1

Question: What about the koff [5] of the same binder?
Answer: 7.2e-05 s⁻¹

Question: And the kon [5]?
Answer: 1.5e+07 M⁻¹ s⁻¹

Question: What about the Kd [6] of the same binder?
Answer: > 100 nM

Question: And the Kd [7]?
Answer: 0.021 nM

Question: What about the Stoichiometry [7] of the same binder?
Answer: 0.9

Question: What about the koff [7] of the same binder?
Answer: 0.00047 s⁻¹

Question: And the kon [7]?
Answer: 2.3e+07 M⁻¹ s⁻¹

Question: What about the Kd [8] of the same binder?
Answer: 0.169 nM

Question: And the Stoichiometry [8]?
Answer: 0.8

Question: What about the koff [8] of the same binder?
Answer: 0.00097 s⁻¹

Question: And the kon [8]?
Answer: 5.7e+06 M⁻¹ s⁻¹

Question: And the “stoichiometry of human CGRP-to-Bispecific Antibody 1” value [9]?
Answer: 0.8
